Source: the supplement of paper PMC10065799, “High-throughput profiling of sequence recognition by tyrosine kinases and SH2 domains using bacterial peptide display” (eLife, 2023)

Assays:
Hck = Hck (UniProt P08631); assay: phosphorylation enrichment, bacterial display (enrichment ratio); higher = better substrate or ligand; peptides without Tyr show the background
AncSZ = assay: as above
c-Abl (mouse) = assay: as above
FGFR3 = FGFR3 (UniProt P22607); assay: as above
Fer (mouse) = assay: as above
Fyn = Fyn (UniProt P06241); assay: as above
Jak2 = Jak2 (UniProt O60674); assay: as above
MERTK = MERTK (UniProt Q12866); assay: as above
FGFR1 = FGFR1 (UniProt P11362); assay: as above
EPHB1 = EPHB1 (UniProt P54762); assay: as above
c-Src = assay: as above
EPHB2 = EPHB2 (UniProt P29323); assay: as above
Fes = Fes (UniProt P07332); assay: as above
SHP2-C SH2 = assay: SH2 binding enrichment of the phosphorylated peptide, bacterial display (enrichment ratio); higher = better substrate or ligand; peptides without Tyr show the background
Grb2 SH2 = Grb2 SH2 (UniProt P62993); assay: as above
c-Src SH2 = assay: as above
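Throughout, for SH2 binding enrichment of the phosphorylated peptide, bacterial display: peptide library displayed on the E. coli surface as eCPX fusions, selected cells deep-sequenced, score is each peptide's frequency after selection divided by its frequency in the input.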
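Throughout, for phosphorylation enrichment, bacterial display: 11-residue human phosphosite peptides and single-mutation variants displayed on the E. coli surface, counted by deep sequencing, each peptide's frequency after selection divided by its frequency in the unselected input library; frequency after pTyr selection over input frequency; kinase dosed for 20-30% of maximal phosphorylation in three min.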

Chain of FGFR3 (P22607 whole entry, looked up): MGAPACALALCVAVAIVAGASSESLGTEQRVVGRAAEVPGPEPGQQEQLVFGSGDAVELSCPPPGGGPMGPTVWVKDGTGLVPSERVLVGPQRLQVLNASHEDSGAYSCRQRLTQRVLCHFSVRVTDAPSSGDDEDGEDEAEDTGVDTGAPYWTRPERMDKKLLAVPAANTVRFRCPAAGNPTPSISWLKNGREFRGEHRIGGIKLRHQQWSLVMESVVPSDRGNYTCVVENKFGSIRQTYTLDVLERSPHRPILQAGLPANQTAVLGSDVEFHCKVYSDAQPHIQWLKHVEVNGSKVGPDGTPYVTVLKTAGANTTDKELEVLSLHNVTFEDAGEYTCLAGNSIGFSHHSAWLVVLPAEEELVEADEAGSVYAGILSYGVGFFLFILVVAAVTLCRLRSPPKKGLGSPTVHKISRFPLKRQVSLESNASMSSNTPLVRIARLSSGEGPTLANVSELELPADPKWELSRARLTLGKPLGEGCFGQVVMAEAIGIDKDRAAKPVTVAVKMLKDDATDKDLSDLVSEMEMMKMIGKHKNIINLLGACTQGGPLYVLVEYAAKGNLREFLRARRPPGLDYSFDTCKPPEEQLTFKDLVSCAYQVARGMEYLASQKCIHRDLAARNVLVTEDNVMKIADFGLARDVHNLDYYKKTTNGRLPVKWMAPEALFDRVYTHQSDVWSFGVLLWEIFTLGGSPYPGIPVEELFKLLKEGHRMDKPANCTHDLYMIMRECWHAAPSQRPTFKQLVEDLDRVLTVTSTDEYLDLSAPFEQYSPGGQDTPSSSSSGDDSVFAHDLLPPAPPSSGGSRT
Chain of Fes (P07332 whole entry, looked up): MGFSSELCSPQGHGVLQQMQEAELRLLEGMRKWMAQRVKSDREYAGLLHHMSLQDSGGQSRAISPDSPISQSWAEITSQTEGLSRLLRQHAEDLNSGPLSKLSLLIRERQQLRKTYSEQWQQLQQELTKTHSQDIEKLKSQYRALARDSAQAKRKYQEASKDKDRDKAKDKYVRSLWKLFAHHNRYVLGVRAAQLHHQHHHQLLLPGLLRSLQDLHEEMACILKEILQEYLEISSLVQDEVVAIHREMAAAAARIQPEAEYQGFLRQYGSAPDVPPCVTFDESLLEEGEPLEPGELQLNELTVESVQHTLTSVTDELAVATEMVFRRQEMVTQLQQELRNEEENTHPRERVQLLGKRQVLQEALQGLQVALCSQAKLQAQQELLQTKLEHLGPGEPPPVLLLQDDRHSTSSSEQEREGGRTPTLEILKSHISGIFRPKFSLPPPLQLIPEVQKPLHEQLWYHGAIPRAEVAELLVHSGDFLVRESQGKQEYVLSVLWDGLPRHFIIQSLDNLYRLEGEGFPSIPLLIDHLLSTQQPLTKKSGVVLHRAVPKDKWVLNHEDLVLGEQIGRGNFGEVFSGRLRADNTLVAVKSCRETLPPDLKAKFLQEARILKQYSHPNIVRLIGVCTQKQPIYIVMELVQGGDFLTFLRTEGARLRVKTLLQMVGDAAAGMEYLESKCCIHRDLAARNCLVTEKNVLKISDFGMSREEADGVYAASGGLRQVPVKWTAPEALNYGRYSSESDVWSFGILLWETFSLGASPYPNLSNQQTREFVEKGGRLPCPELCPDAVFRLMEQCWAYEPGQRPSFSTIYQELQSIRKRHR
Chain of EPHB2 (P29323 whole entry, looked up): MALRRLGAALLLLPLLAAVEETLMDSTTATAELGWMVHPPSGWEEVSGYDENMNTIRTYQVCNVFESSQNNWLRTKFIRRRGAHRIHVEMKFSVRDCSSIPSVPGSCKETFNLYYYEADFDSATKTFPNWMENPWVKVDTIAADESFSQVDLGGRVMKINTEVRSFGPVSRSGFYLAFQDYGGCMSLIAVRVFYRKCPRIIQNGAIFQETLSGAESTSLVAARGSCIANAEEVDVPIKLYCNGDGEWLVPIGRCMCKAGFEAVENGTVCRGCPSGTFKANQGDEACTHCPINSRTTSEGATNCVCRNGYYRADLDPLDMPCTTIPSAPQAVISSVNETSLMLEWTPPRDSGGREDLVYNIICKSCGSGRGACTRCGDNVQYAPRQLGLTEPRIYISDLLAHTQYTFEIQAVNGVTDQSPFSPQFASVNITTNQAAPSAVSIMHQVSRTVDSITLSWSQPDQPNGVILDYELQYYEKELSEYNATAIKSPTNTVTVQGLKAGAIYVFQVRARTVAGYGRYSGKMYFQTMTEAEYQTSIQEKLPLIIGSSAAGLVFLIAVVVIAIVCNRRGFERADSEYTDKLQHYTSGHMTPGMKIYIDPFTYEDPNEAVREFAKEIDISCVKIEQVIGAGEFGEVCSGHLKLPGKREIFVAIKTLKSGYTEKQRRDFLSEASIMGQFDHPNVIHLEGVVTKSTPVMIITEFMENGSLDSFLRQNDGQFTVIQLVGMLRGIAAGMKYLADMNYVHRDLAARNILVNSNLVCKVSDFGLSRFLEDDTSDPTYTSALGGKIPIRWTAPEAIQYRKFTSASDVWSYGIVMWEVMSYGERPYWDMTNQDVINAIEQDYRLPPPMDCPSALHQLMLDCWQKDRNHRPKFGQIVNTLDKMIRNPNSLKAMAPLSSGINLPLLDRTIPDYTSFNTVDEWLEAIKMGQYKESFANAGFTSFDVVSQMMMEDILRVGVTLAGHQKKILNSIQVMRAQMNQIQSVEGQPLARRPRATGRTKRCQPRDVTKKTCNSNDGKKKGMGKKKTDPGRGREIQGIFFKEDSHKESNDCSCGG
Chain of Grb2 SH2 (P62993 whole entry, looked up): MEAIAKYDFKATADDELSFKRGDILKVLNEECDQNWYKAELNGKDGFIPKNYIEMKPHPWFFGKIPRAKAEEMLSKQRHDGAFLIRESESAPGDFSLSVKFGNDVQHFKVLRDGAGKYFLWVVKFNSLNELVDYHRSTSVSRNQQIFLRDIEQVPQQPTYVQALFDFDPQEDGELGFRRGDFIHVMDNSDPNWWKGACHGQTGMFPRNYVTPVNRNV
Chain of MERTK (Q12866 whole entry, looked up): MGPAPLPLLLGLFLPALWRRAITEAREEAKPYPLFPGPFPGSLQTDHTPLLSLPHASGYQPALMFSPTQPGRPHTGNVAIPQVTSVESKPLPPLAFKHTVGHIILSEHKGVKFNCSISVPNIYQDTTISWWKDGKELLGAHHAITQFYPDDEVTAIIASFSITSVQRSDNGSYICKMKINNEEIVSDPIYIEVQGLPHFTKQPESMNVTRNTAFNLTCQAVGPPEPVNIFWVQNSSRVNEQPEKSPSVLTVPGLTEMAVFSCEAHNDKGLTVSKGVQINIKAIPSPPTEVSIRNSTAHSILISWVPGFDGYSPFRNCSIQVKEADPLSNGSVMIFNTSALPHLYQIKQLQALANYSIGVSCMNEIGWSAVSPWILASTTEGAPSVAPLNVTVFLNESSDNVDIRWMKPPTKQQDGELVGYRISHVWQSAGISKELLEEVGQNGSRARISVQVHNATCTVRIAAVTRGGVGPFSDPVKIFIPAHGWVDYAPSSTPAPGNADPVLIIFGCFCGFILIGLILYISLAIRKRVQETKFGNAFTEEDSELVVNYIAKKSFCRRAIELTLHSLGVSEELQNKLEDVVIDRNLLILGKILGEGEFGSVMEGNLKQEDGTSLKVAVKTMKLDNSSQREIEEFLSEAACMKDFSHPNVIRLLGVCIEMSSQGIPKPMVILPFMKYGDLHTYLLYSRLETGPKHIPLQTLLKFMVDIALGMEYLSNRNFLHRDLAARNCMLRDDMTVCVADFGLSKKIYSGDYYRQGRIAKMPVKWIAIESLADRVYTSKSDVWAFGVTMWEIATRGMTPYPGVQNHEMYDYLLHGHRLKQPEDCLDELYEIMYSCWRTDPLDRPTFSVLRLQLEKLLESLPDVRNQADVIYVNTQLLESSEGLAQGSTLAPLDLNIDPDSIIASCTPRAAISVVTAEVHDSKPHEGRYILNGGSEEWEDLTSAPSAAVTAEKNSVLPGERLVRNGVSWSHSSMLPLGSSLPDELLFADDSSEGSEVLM
Chain of Hck (P08631 whole entry, looked up): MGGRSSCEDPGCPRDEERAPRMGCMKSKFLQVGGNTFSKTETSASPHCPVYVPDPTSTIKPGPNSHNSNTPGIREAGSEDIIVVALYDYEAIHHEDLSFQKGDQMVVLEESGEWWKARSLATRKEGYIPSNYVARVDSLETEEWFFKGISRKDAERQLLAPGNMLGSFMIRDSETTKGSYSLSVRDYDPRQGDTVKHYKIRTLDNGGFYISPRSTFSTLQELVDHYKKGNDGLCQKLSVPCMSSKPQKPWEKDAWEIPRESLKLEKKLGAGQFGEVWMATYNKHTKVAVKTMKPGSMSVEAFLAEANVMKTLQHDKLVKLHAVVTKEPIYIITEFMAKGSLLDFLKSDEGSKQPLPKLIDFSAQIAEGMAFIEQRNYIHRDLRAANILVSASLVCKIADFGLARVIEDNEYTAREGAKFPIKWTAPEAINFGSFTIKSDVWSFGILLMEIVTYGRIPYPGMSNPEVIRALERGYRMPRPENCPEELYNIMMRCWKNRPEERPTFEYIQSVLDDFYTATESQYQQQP
Chain of Fyn (P06241 whole entry, looked up): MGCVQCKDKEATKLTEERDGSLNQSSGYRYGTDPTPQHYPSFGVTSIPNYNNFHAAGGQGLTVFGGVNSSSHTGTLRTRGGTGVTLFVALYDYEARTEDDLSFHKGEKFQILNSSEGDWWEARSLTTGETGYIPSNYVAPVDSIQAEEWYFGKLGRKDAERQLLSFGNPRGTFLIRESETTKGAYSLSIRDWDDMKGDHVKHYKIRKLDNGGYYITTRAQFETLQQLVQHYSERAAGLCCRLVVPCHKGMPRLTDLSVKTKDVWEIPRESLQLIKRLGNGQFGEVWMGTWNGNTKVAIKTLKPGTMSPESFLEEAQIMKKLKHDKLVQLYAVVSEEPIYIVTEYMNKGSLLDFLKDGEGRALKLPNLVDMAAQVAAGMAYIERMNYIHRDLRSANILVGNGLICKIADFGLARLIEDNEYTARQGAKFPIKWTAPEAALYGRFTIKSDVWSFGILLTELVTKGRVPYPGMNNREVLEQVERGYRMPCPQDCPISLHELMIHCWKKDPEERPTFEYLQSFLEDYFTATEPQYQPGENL

Row | Sequence | phosphorylation enrichment (Hck) | phosphorylation enrichment (AncSZ) | phosphorylation enrichment (c-Abl (mouse)) | phosphorylation enrichment (FGFR3) | phosphorylation enrichment (Fer (mouse)) | phosphorylation enrichment (Fyn) | phosphorylation enrichment (Jak2) | phosphorylation enrichment (MERTK) | phosphorylation enrichment (FGFR1) | phosphorylation enrichment (EPHB1) | phosphorylation enrichment (c-Src) | phosphorylation enrichment (EPHB2) | phosphorylation enrichment (Fes) | SH2 binding enrichment (SHP2-C SH2) | SH2 binding enrichment (Grb2 SH2) | SH2 binding enrichment (c-Src SH2)
1 | NPIGLYSAEIL [LDB3_Y202_T206I] | 1.04 | 0.751 | 0.568 | 0.562 | 3.44 | 0.839 | 0.876 | 6.37 | 0.419 | 3 | 1.11 | 2.6 | 0.879 | 0.852 | 0.635 | 0.415
2 | KKARAYGPGIE [FLNA_Y287] | 0.405 | 0.576 | 0.468 | 0.343 | 0.38 | 0.357 | 0.418 | 0.399 | 0.323 | 0.328 | 0.392 | 0.335 | 0.446 | 0.855 | 0.693 | 0.408
3 | GCRSKSVGLWG [KCNQ1_Y184_Y184S] | 0.423 | 0.51 | 0.477 | 0.382 | 0.365 | 0.344 | 0.539 | 0.389 | 0.429 | 0.38 | 0.436 | 0.488 | 0.62 | 0.899 | 0.875 | 0.531
4 | FVSIVYNDSGE [TSC2_Y1650] | 0.611 | 0.951 | 0.647 | 0.725 | 0.52 | 0.596 | 0.942 | 0.571 | 0.559 | 0.509 | 0.516 | 0.702 | 0.993 | 1.01 | 1.2 | 0.705
5 | TALFIYIRPKA [OR10C1_Y258] | 0.523 | 1.23 | 0.624 | 0.712 | 0.508 | 0.55 | 0.945 | 0.388 | 0.556 | 0.406 | 0.304 | 0.697 | 1.22 | 0.721 | 0.891 | 0.494
6 | GGRIDYIAGLV [APRT_Y60_D65V] | 0.568 | 1.19 | 0.573 | 0.717 | 0.715 | 0.418 | 0.871 | 0.389 | 0.496 | 0.562 | 0.423 | 0.604 | 1.11 | 0.582 | 0.692 | 0.382
7 | VNYGAYINYFK [GLB1_Y488_D491Y] | 1.1 | 0.894 | 0.941 | 0.986 | 0.488 | 1.22 | 1.7 | 0.629 | 0.905 | 1.9 | 1.08 | 2.03 | 1.06 | 1.12 | 3.13 | 1.23
8 | SLALFYRKVYH [RBL1_Y792] | 0.518 | 1.23 | 0.593 | 0.776 | 0.566 | 0.481 | 1.14 | 0.408 | 0.575 | 0.667 | 0.379 | 0.643 | 1.23 | 0.795 | 0.689 | 0.522
